Test results published in publication PMC10802472 (bioRxiv, 2024).
Substitutions are numbered along the chain they refer to.

B1: ACAD11 K* mutant (kinase-inactive mouse ACAD11) (enzyme, UniProt Q80XL6 1-779, looked up)
chain: METDVTSDTVEVLPQHKFDLRSLEAYLNQHLPGFGSDSRAVLTVTQYRSGQSNPTFFLQKGSQAYVLRKKPPGSLLPKAHKIDREFKIQKALFSIGFPVAKPLLYCRDASVIGTEFYVMEHVQGRIFRDFSIPGVSSAERAAIYVSVAETLAWLHSLDIRSLKLDKYGTGVGYCKRQVSTWTKQYQASAHQSIPAMDQLSTWLMKNLPDSDSEECLVHGAFKLDNIVFHPKECRVIAVLDWELSTFGHPLTDLAHLSLFYYWPRTLPMINRGSHIPENTGIPLMEELISIYCHRRGIDPNLPNWNFFMALSFFKLAGISQGVYRRYLMGNNSSEDSFLTANTVQPLAETGLQLSKRTLRTTPPQADAKSQLFAQSRRGQEVLTRVKQFMKQHVFPAEKEVAEYYAQSGNSAEKWGHPLVIEKLKEMAKAEGLWNLFLPAVSGLSQVDYALIAEETGKCFFAPDVFNCQAPDTGNMEVLHLYGSEQQKKQWLEPLLRGDITSVFCMTEPNVSSSDATNIECTIQRDGGGYIVNGKKWWSSGAGNPKCKIAIVLGRTESPSASRHRQHSMILVPMDTPGVELIRPLSVFGYMDNMHGGHWEVHFNHVRVPASNLILGEGRGFEISQGRLGPGRIHHCMRTVGLAERILQIMCDRAVQREAFKKKLYEHEVVAHWIAKSRIAIEEIRLLTLKAAHSIDTLGSASARKEIAMIKVAAPKAVCKIADWAIQVHGGAGVSQDYPLANMYAIIRTLRLADGPDEVHLSAIAKMELQDQARRLTARM
B2: ACAD11 A* mutant (ACAD-inactive mouse ACAD11) (enzyme, UniProt Q80XL6 1-779, looked up)
chain: B1 chain with A220D, D753N

Target: the molecule itself
Assay: cryo-EM structure

| Protein | stoichiometry N |
| --- | --- |
| B1 | 4 |
| B2 | 4 |
